Measured values reported in patent publication US20160264649A1.

How the values were obtained:
Assay in all cases: cell-based or functional assay
[1] = molecular target: HIV-1 Env of isolate 92UG001 (subtype D) (HIV-1)
[2] = molecular target: HIV-1 Env of isolate 92UG005 (subtype D) (HIV-1)
[3] = molecular target: HIV-1 Env of isolate 92UG024 (subtype D) (HIV-1)
[4] = molecular target: HIV-1 Env of isolate 92UG046 (subtype D) (HIV-1)
[5] = molecular target: HIV-1 Env of isolate 92UG114 (subtype D) (HIV-1)
[6] = molecular target: HIV-1 Env of isolate 98CN006 (subtype CRF08_BC) (HIV-1)
[7] = molecular target: HIV-1 Env of isolate 98CN009 (subtype CRF07_BC) (HIV-1)
[8] = molecular target: HIV-1 Env of isolate MGRM-D-001 (subtype D) (HIV-1)
[9] = molecular target: HIV-1 Env of isolate MGRM-D-002 (subtype D) (HIV-1)
[10] = molecular target: HIV-1 Env of isolate MGRM-D-003 (subtype D) (HIV-1)
[11] = molecular target: HIV-1 Env of isolate MGRM-D-004 (subtype D) (HIV-1)
[12] = molecular target: HIV-1 Env of isolate MGRM-D-005 (subtype D) (HIV-1)
[13] = molecular target: HIV-1 Env of isolate MGRM-D-008 (subtype D) (HIV-1)
[14] = molecular target: HIV-1 Env of isolate MGRM-D-011 (subtype D) (HIV-1)
[15] = molecular target: HIV-1 Env of isolate MGRM-D-012 (subtype D) (HIV-1)
[16] = molecular target: HIV-1 Env of isolate MGRM-D-013 (subtype D) (HIV-1)
[17] = molecular target: HIV-1 Env of isolate MGRM-D-014 (subtype D) (HIV-1)
[18] = molecular target: HIV-1 Env of isolate MGRM-D-016 (subtype D) (HIV-1)
[19] = molecular target: HIV-1 Env of isolate MGRM-D-018 (subtype D) (HIV-1)
[20] = molecular target: HIV-1 Env of isolate MGRM-D-019 (subtype D) (HIV-1)
[21] = molecular target: HIV-1 Env of isolate MGRM-D-020 (subtype D) (HIV-1)
[22] = molecular target: HIV-1 Env of isolate MGRM-D-021 (subtype D) (HIV-1)
[23] = molecular target: HIV-1 Env of isolate MGRM-D-022 (subtype D) (HIV-1)
[24] = molecular target: HIV-1 Env of isolate MGRM-D-024 (subtype D) (HIV-1)
[25] = molecular target: HIV-1 Env of isolate MGRM-D-026 (subtype D) (HIV-1)
[26] = molecular target: HIV-1 Env of isolate MGRM-D-028 (subtype D) (HIV-1)
[27] = molecular target: HIV-1 Env of isolate MGRM-D-029 (subtype D) (HIV-1)
[28] = molecular target: HIV-1 Env of isolate MGRM-F1-004 (subtype F) (HIV-1)
[29] = molecular target: HIV-1 Env of isolate MGRM-F1-006 (subtype F) (HIV-1)
[30] = molecular target: HIV-1 Env of isolate MGRM-F1-008 (subtype F) (HIV-1)
[31] = molecular target: HIV-1 Env of isolate MGRM-F1-010 (subtype F) (HIV-1)
[32] = molecular target: HIV-1 Env of isolate MGRM-F1-012 (subtype F) (HIV-1)
[33] = molecular target: HIV-1 Env of isolate MGRM-F1-013 (subtype F) (HIV-1)
[34] = molecular target: HIV-1 Env of isolate MGRM-F1-014 (subtype F) (HIV-1)
[35] = molecular target: HIV-1 Env of isolate MGRM-F1-015 (subtype F) (HIV-1)
[36] = molecular target: HIV-1 Env of isolate MGRM-F1-016 (subtype F) (HIV-1)
[37] = molecular target: HIV-1 Env of isolate MGRM-F1-017 (subtype F) (HIV-1)
[38] = molecular target: HIV-1 Env of isolate MGRM-F1-018 (subtype F) (HIV-1)
[39] = molecular target: HIV-1 Env of isolate MGRM-F1-020 (subtype F) (HIV-1)
[40] = molecular target: HIV-1 Env of isolate MGRM-F1-021 (subtype F) (HIV-1)
[41] = molecular target: HIV-1 Env of isolate MGRM-F1-022 (subtype F) (HIV-1)
[42] = molecular target: HIV-1 Env of isolate MGRM-F1-023 (subtype F) (HIV-1)
[43] = molecular target: HIV-1 Env of pseudovirus isolate MGRM-G-001 (subtype G) (HIV-1)
[44] = molecular target: HIV-1 Env of pseudovirus isolate MGRM-G-004 (subtype G) (HIV-1)
[45] = molecular target: HIV-1 Env of pseudovirus isolate MGRM-G-006 (subtype G) (HIV-1)
[46] = molecular target: HIV-1 Env of pseudovirus isolate MGRM-G-009 (subtype G) (HIV-1)
[47] = molecular target: HIV-1 Env of pseudovirus isolate MGRM-G-011 (subtype G) (HIV-1)
[48] = molecular target: HIV-1 Env of pseudovirus isolate MGRM-G-013 (subtype G) (HIV-1)
[49] = molecular target: HIV-1 Env of pseudovirus isolate MGRM-G-014 (subtype G) (HIV-1)
[50] = molecular target: HIV-1 Env of pseudovirus isolate MGRM-G-015 (subtype G) (HIV-1)
[51] = molecular target: HIV-1 Env of pseudovirus isolate MGRM-G-016 (subtype G) (HIV-1)
[52] = molecular target: HIV-1 Env of pseudovirus isolate MGRM-G-017 (subtype G) (HIV-1)
[53] = molecular target: HIV-1 Env of pseudovirus isolate MGRM-G-019 (subtype G) (HIV-1)
[54] = molecular target: HIV-1 Env of pseudovirus isolate MGRM-G-024 (subtype G) (HIV-1)
[55] = molecular target: HIV-1 Env of pseudovirus isolate MGRM-G-025 (subtype G) (HIV-1)
[56] = molecular target: HIV-1 Env of pseudovirus isolate MGRM-G-027 (subtype G) (HIV-1)
[57] = molecular target: HIV-1 Env of pseudovirus isolate MGRM-G-028 (subtype G) (HIV-1)
[58] = molecular target: envelope of aMLV pseudovirus (negative control)

B1: PGT-135 (antibody, V domains shown)
VH: QLQMQESGPGLVKPSETLSLSCTVSGDSIRGGEWGDKDYHWGWVRHSAGKGLEWIGSIHWRGTTHYKESLRRRVSMSIDTSRNWFSLRLASVTAADTAVYFCARHRHHDVFMLVPIAGWFDVWGPGVQVTVSS
VL: EIVMTQSPDTLSVSPGETVTLSCRASQNINKNLAWYQYKPGQSPRLVIFETYSKIAAFPARFVASGSGTEFTLTINNMQSEDVAVYYCQQYEEWPRTFGQGTKVDIK
For B1, the IC50 (neutralization) [1] was > 50 µg/mL, the IC50 (neutralization) [2] was > 50 µg/mL and the IC50 (neutralization) [3] was 0.01 µg/mL. For the same binder, the IC50 (neutralization) [4] was > 50 µg/mL, the IC50 (neutralization) [5] was 1.29 µg/mL and the IC50 (neutralization) [6] was 0.429 µg/mL. For the same binder, the IC50 (neutralization) [7] was 0.071 µg/mL, the IC50 (neutralization) [8] was > 50 µg/mL and the IC50 (neutralization) [9] was > 50 µg/mL. For the same binder, the IC50 (neutralization) [10] was > 50 µg/mL, the IC50 (neutralization) [11] was > 50 µg/mL and the IC50 (neutralization) [12] was > 50 µg/mL. The IC50 (neutralization) [13] was > 50 µg/mL, the IC50 (neutralization) [14] was 23.5 µg/mL and the IC50 (neutralization) [15] was > 50 µg/mL. The IC50 (neutralization) [16] was > 50 µg/mL, the IC50 (neutralization) [17] was 2.21 µg/mL and the IC50 (neutralization) [18] was > 50 µg/mL. For the same binder, the IC50 (neutralization) [19] was 0.039 µg/mL, the IC50 (neutralization) [20] was > 50 µg/mL and the IC50 (neutralization) [21] was > 50 µg/mL. For the same binder, the IC50 (neutralization) [22] was > 50 µg/mL, the IC50 (neutralization) [23] was > 50 µg/mL and the IC50 (neutralization) [24] was > 50 µg/mL. For the same binder, the IC50 (neutralization) [25] was > 50 µg/mL, the IC50 (neutralization) [26] was > 50 µg/mL and the IC50 (neutralization) [27] was 30.8 µg/mL. The IC50 (neutralization) [28] was 0.211 µg/mL, the IC50 (neutralization) [29] was > 50 µg/mL and the IC50 (neutralization) [30] was > 50 µg/mL. For the same binder, the IC50 (neutralization) [31] was > 50 µg/mL, the IC50 (neutralization) [32] was 0.01 µg/mL and the IC50 (neutralization) [33] was 21.1 µg/mL. The IC50 (neutralization) [34] was > 50 µg/mL, the IC50 (neutralization) [35] was 1.11 µg/mL and the IC50 (neutralization) [36] was > 50 µg/mL. The IC50 (neutralization) [37] was 7.79 µg/mL, the IC50 (neutralization) [38] was > 50 µg/mL and the IC50 (neutralization) [39] was 0.168 µg/mL. It also gave an IC50 (neutralization) [40] of 0.065 µg/mL, an IC50 (neutralization) [41] of 0.964 µg/mL and an IC50 (neutralization) [42] of 0.088 µg/mL. For the same binder, the IC50 [43] was 0.393 µg/mL, the IC50 [44] was > 50 µg/mL and the IC50 [45] was > 50 µg/mL. For the same binder, the IC50 [46] was > 50 µg/mL, the IC50 [47] was > 50 µg/mL and the IC50 [48] was > 50 µg/mL. For the same binder, the IC50 [49] was > 50 µg/mL, the IC50 [50] was > 50 µg/mL and the IC50 [51] was > 50 µg/mL. The IC50 [52] was 0.137 µg/mL, the IC50 [53] was 0.145 µg/mL and the IC50 [54] was 0.062 µg/mL. For the same binder, the IC50 [55] was 0.592 µg/mL, the IC50 [56] was 0.062 µg/mL and the IC50 [57] was > 50 µg/mL. The IC50 [58] was > 50 µg/mL.
